This data set can be described thus: protein stability index of a GFP-peptide fusion (GPS, HEK-293T) (PSI 1-6); higher = more stable. The following applies: c terminus: a fixed tail appended.

± gives the standard deviation.

The text below walks through data of the supplement of paper PMC10567573.
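Note: 24-mer peptide tiles fused after GFP, lentivirally expressed, FACS-sorted into six equal bins by GFP/DsRed ratio, decoded by Illumina sequencing, PSI is the read-weighted mean bin number.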

Regarding KTKYILLMDIVPADDHRYKFADNK [TBX5], the protein stability index (treatment: DMSO) was determined as 2.08 ± 0.22 and the protein stability index (treatment: MLN4924 1 uM, 8 h) worked out at 2.3 ± 0.42.

Turning to KTNLDGMITVQLPEVPANENIKGY [PTPRD], the protein stability index is, setting by setting: (treatment: DMSO) 4.12 ± 0.4; (treatment: MLN4924 1 uM, 8 h) 4.24 ± 0.28.

As for KTYQETPEIDMFLNVATFLDPRYK [ZBED1], the protein stability index by setting is: (treatment: DMSO) 2.38 ± 0.36; (treatment: MLN4924 1 uM, 8 h) 2.56 ± 0.32.

With KVIDDTNITRLQLETEIEALKEEL [KRT18], the protein stability index runs as follows: (treatment: DMSO) 4.2 ± 0.18; (treatment: MLN4924 1 uM, 8 h) 4.36 ± 0.23.

Consider KVQKPLLQAPFLPPKAPPPVIKIP [RHOBTB1], for which the protein stability index (treatment: DMSO) amounted to 3.17 ± 0.11 and the protein stability index (treatment: MLN4924 1 uM, 8 h) came out at 3.35 ± 0.13.

For KYEAQNIVNSTEESDDAFDTVTIP [IQUB], the protein stability index came out at 5.27 ± 0.22 (treatment: DMSO) and 5.09 ± 0.45 (treatment: MLN4924 1 uM, 8 h).

KYEQAFESSQKYKEGKYIIELNHM [YPEL3]: the protein stability index by setting is: (treatment: DMSO) 2.71 ± 0.1; (treatment: MLN4924 1 uM, 8 h) 2.87 ± 0.2.

Regarding LALMIQSSGNTVLLLILCMQHSFP [TMEM192], the protein stability index worked out at 2.9 ± 0.073 (treatment: DMSO) and 3.1 ± 0.48 (treatment: MLN4924 1 uM, 8 h).

Turning to LAPEVIQSKGHGRAVDWWALGILI [PRKX], the protein stability index reads like this: (treatment: DMSO) 2.61 ± 0.86; (treatment: MLN4924 1 uM, 8 h) 2.3 ± 0.62.

With LAPTFSNLLLQPTTNPHTSASHRP [SMG5], the protein stability index reads like this: (treatment: DMSO) 3.55 ± 0.15; (treatment: MLN4924 1 uM, 8 h) 3.61 ± 0.26.

With LARPECLFLLLGHGASPGLRDGGG [ANKRD9], the protein stability index reads like this: (treatment: DMSO) 2.29 ± 0.54; (treatment: MLN4924 1 uM, 8 h) 2.19 ± 0.23.

Consider LASIFQLAMWTTALLHQAETLQPS [TMEM175], for which the protein stability index (treatment: DMSO) worked out at 3.13 ± 0.29 and the protein stability index (treatment: MLN4924 1 uM, 8 h) came to 3.13 ± 0.75.

With LCDKLPPATALGTASYPSDGCGAD [NOL4L], the protein stability index is, setting by setting: (treatment: DMSO) 4.98 ± 0.19; (treatment: MLN4924 1 uM, 8 h) 4.92 ± 0.23.

For LCLLVAWSIVGMAVVKGIQSSGKV [SLC6A17], the protein stability index runs as follows: (treatment: DMSO) 2.76 ± 0.49; (treatment: MLN4924 1 uM, 8 h) 2.84 ± 0.21.

LDLKRQYDRVAQLDQLLHYRKKSA [CHGB]: the protein stability index is, setting by setting: (treatment: DMSO) 3.23 ± 0.26; (treatment: MLN4924 1 uM, 8 h) 3.63 ± 0.51.

Regarding LDLSKNKLQQLPADFGRLVNLQHL [LRRC59], the protein stability index runs as follows: (treatment: DMSO) 2.54 ± 0.33; (treatment: MLN4924 1 uM, 8 h) 2.63 ± 0.26.

Turning to LDQPVSAPPSPRDISMEIDSPENM [CCDC6], the protein stability index worked out at 5.47 ± 0.2 (treatment: DMSO) and 5.23 ± 0.41 (treatment: MLN4924 1 uM, 8 h).

With LEAEVKDTTRVENLIKSENYGKIL [R3HDM1], the protein stability index runs as follows: (treatment: DMSO) 4.3 ± 0.59; (treatment: MLN4924 1 uM, 8 h) 4.43 ± 0.42.

Take LEFKLKSNDNEERLQVVKLLAKMF [PDS5B]: the protein stability index reads like this: (treatment: DMSO) 2.12 ± 0.38; (treatment: MLN4924 1 uM, 8 h) 2.29 ± 0.28.

LEIDSGVITLDPQTASRSLVLSED [TRIM15]: the protein stability index (treatment: DMSO) was found to be 4.69 ± 0.19 and the protein stability index (treatment: MLN4924 1 uM, 8 h) worked out at 4.74 ± 0.32.

LEPPEEEIIEGNTKSHIMLVQRQM [NECAB1] returned a protein stability index (treatment: DMSO) of 4.64 ± 0.16 and a protein stability index (treatment: MLN4924 1 uM, 8 h) of 4.8 ± 0.24.

With LEQMIKENQEKTEDQYEENSHLTS [ETS2], the protein stability index by setting is: (treatment: DMSO) 5.7 ± 0.16; (treatment: MLN4924 1 uM, 8 h) 5.51 ± 0.14.

Regarding LESIPSLSQSPEPGRRGDPDTAPP [RTN2], the protein stability index by setting is: (treatment: DMSO) 5.49 ± 0.12; (treatment: MLN4924 1 uM, 8 h) 5.535 ± 0.045.

LESVNHCHLNGIVHRDLKPENLLL [CAMK2D]: the protein stability index was 2.85 ± 0.34 (treatment: DMSO) and 2.98 ± 0.41 (treatment: MLN4924 1 uM, 8 h).

Consider LFLLLGHGASPGLRDGGGLTPLEL [ANKRD9], for which the protein stability index (treatment: DMSO) was 2.29 ± 0.32 and the protein stability index (treatment: MLN4924 1 uM, 8 h) was determined as 2.36 ± 0.59.

For LFQSPLFAKAGDTLSGTCLLIANK [CARM1], the protein stability index came out at 2.56 ± 0.76 (treatment: DMSO) and 2.81 ± 0.47 (treatment: MLN4924 1 uM, 8 h).

In the case of LFVNSHPGIDRPGMLCSFRIPGAW [DCAF4], the protein stability index by setting is: (treatment: DMSO) 2.38 ± 0.59; (treatment: MLN4924 1 uM, 8 h) 2.24 ± 0.43.

Turning to LGDEICCWSFYGQGRKIAEVCCTS [KCTD13], the protein stability index runs as follows: (treatment: DMSO) 2.15 ± 0.1; (treatment: MLN4924 1 uM, 8 h) 2.1 ± 0.29.

Turning to LGDPCPMLESPGAPCRSAQASVSC [HDAC6], the protein stability index by setting is: (treatment: DMSO) 3.94 ± 0.39; (treatment: MLN4924 1 uM, 8 h) 4.06 ± 0.18.

Take LGDRLNVEVDTAPTVDLNQVLNET [KRT34]: the protein stability index is 4.87 ± 0.15 (treatment: DMSO) and 4.96 ± 0.29 (treatment: MLN4924 1 uM, 8 h).

Take LGGAIDFGAAYVLEQASSHIGNST [ATL3]: the protein stability index was found to be 3.03 ± 0.23 (treatment: DMSO) and 3.2 ± 0.15 (treatment: MLN4924 1 uM, 8 h).

On to LGLLDDYLEVAKHFKPHGFSSDKA [ATF4], for which the protein stability index reads like this: (treatment: DMSO) 2.89 ± 0.19; (treatment: MLN4924 1 uM, 8 h) 3.07 ± 0.91.

In turn, LGVGLGVEISRRLRHSNPRADPLV [SPNS1] came in with a protein stability index (treatment: DMSO) of 3.082 ± 0.029 and a protein stability index (treatment: MLN4924 1 uM, 8 h) of 2.96 ± 0.22.

On to LIDEKVLILHGGVSDITDLELLDK [PPEF2], for which the protein stability index turned out to be 3.14 ± 1.5 (treatment: DMSO) and 3.71 ± 0.55 (treatment: MLN4924 1 uM, 8 h).

For LIFHRHPVAQSTDAIRGKVGYTRG [SPSB1], the protein stability index (treatment: DMSO) was 2.33 ± 0.23 and the protein stability index (treatment: MLN4924 1 uM, 8 h) was found to be 2.41 ± 0.21.

Take LIHPELNEGLMKWENRHEGVFKFL [ELF3]: the protein stability index is 2.36 ± 0.15 (treatment: DMSO) and 2.48 ± 0.19 (treatment: MLN4924 1 uM, 8 h).
